Laboratory results published in the supplement of paper PMC10567573.

B1: FAM189A2 (parent)
chain: PRCDLVDLGEGKICFCCEEFQPAK

Variants of: B1
Experiment: protein stability index of a GFP-peptide fusion (GPS, HEK-293T) (PSI 1-6); higher = more stable
Settings: c terminus: a fixed tail appended
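Note: lentivirally expressed fusions sorted by FACS into six bins by GFP to DsRed ratio, PSI derived from sequencing read proportions per bin multiplied by bin number.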

**Q.** For PRCDLVNLGEGKICFCCEEFQPAK [D7N], which protein stability index is on record?
**A.** 2.76

**Q.** Which protein stability index does the source give for PRCDLVRLGEGKICFCCEEFQPAK [D7R] here?
**A.** 2.6

**Q.** Which protein stability index does the source give for PRCDLVMLGEGKICFCCEEFQPAK [D7M] here?
**A.** 1.93

**Q.** For PRCDLVQLGEGKICFCCEEFQPAK [D7Q], which protein stability index is on record?
**A.** 2.2

**Q.** For PRCDLVLLGEGKICFCCEEFQPAK [D7L], which protein stability index is on record?
**A.** 2.3

**Q.** With PRCDLVKLGEGKICFCCEEFQPAK [D7K] as the variant, how does the protein stability index read?
**A.** 3.76

**Q.** Which protein stability index does the source give for PRCDLVALGEGKICFCCEEFQPAK [D7A] here?
**A.** 2.61

**Q.** With PRCDLVYLGEGKICFCCEEFQPAK [D7Y] as the variant, how does the protein stability index read?
**A.** 2.12

**Q.** With PRCDLVFLGEGKICFCCEEFQPAK [D7F] as the variant, how does the protein stability index read?
**A.** 2.03

**Q.** With PRCDLVVLGEGKICFCCEEFQPAK [D7V] as the variant, how does the protein stability index read?
**A.** 1.89

**Q.** Which protein stability index does the source give for PRCDLVTLGEGKICFCCEEFQPAK [D7T] here?
**A.** 2.79

**Q.** With PRCDLVSLGEGKICFCCEEFQPAK [D7S] as the variant, how does the protein stability index read?
**A.** 2.21

**Q.** With PRCDLVELGEGKICFCCEEFQPAK [D7E] as the variant, how does the protein stability index read?
**A.** 3.05

**Q.** With PRCDLVPLGEGKICFCCEEFQPAK [D7P] as the variant, how does the protein stability index read?
**A.** 3.17

**Q.** For PRCDLVHLGEGKICFCCEEFQPAK [D7H], which protein stability index is on record?
**A.** 3.25

**Q.** For PRCDLVGLGEGKICFCCEEFQPAK [D7G], which protein stability index is on record?
**A.** 3.28

**Q.** Which protein stability index does the source give for PRCDLVILGEGKICFCCEEFQPAK [D7I] here?
**A.** 1.71

**Q.** With PRCDLVCLGEGKICFCCEEFQPAK [D7C] as the variant, how does the protein stability index read?
**A.** 2.92

**Q.** For PRCDLVWLGEGKICFCCEEFQPAK [D7W], which protein stability index is on record?
**A.** 2.24

**Q.** For PRCDLVDLGEGKHCFCCEEFQPAK [I13H], which protein stability index is on record?
**A.** 3.89

**Q.** With PRCDLVDLGEGKYCFCCEEFQPAK [I13Y] as the variant, how does the protein stability index read?
**A.** 2.3

**Q.** Which protein stability index does the source give for PRCDLVDLGEGKACFCCEEFQPAK [I13A] here?
**A.** 3.01

**Q.** With PRCDLVDLGEGKGCFCCEEFQPAK [I13G] as the variant, how does the protein stability index read?
**A.** 3.55

**Q.** With PRCDLVDLGEGKKCFCCEEFQPAK [I13K] as the variant, how does the protein stability index read?
**A.** 3.71

**Q.** Which protein stability index does the source give for PRCDLVDLGEGKWCFCCEEFQPAK [I13W] here?
**A.** 2.11

**Q.** Which protein stability index does the source give for PRCDLVDLGEGKNCFCCEEFQPAK [I13N] here?
**A.** 3.78

**Q.** Which protein stability index does the source give for PRCDLVDLGEGKMCFCCEEFQPAK [I13M] here?
**A.** 4.02

**Q.** With PRCDLVDLGEGKDCFCCEEFQPAK [I13D] as the variant, how does the protein stability index read?
**A.** 4.28

**Q.** Which protein stability index does the source give for PRCDLVDLGEGKECFCCEEFQPAK [I13E] here?
**A.** 3.73

**Q.** With PRCDLVDLGEGKTCFCCEEFQPAK [I13T] as the variant, how does the protein stability index read?
**A.** 3.1

**Q.** With PRCDLVDLGEGKVCFCCEEFQPAK [I13V] as the variant, how does the protein stability index read?
**A.** 2.86

**Q.** For PRCDLVDLGEGKRCFCCEEFQPAK [I13R], which protein stability index is on record?
**A.** 3.44

**Q.** For PRCDLVDLGEGKPCFCCEEFQPAK [I13P], which protein stability index is on record?
**A.** 3.41

**Q.** With PRCDLVDLGEGKLCFCCEEFQPAK [I13L] as the variant, how does the protein stability index read?
**A.** 2.72

**Q.** Which protein stability index does the source give for PRCDLVDLGEGKCCFCCEEFQPAK [I13C] here?
**A.** 3.38

**Q.** Which protein stability index does the source give for PRCDLVDLGEGKFCFCCEEFQPAK [I13F] here?
**A.** 3.02

**Q.** For PRCDLVDLGEGKQCFCCEEFQPAK [I13Q], which protein stability index is on record?
**A.** 3.27

**Q.** Which protein stability index does the source give for PRCDLVDLGEGKSCFCCEEFQPAK [I13S] here?
**A.** 3.57

**Q.** With PRCDLVDLGEGIICFCCEEFQPAK [K12I] as the variant, how does the protein stability index read?
**A.** 2.46

**Q.** With PRCDLVDLGEGYICFCCEEFQPAK [K12Y] as the variant, how does the protein stability index read?
**A.** 2.42

**Q.** With PRCDLVDLGEGGICFCCEEFQPAK [K12G] as the variant, how does the protein stability index read?
**A.** 2.21

**Q.** For PRCDLVDLGEGSICFCCEEFQPAK [K12S], which protein stability index is on record?
**A.** 3.38

**Q.** For PRCDLVDLGEGMICFCCEEFQPAK [K12M], which protein stability index is on record?
**A.** 2.04

**Q.** With PRCDLVDLGEGCICFCCEEFQPAK [K12C] as the variant, how does the protein stability index read?
**A.** 3.45

**Q.** With PRCDLVDLGEGNICFCCEEFQPAK [K12N] as the variant, how does the protein stability index read?
**A.** 2.7

**Q.** With PRCDLVDLGEGEICFCCEEFQPAK [K12E] as the variant, how does the protein stability index read?
**A.** 3.6

**Q.** Which protein stability index does the source give for PRCDLVDLGEGQICFCCEEFQPAK [K12Q] here?
**A.** 3.89

**Q.** For PRCDLVDLGEGAICFCCEEFQPAK [K12A], which protein stability index is on record?
**A.** 3.51

**Q.** For PRCDLVDLGEGRICFCCEEFQPAK [K12R], which protein stability index is on record?
**A.** 1.99

**Q.** With PRCDLVDLGEGFICFCCEEFQPAK [K12F] as the variant, how does the protein stability index read?
**A.** 2.85

**Q.** Which protein stability index does the source give for PRCDLVDLGEGWICFCCEEFQPAK [K12W] here?
**A.** 2.32

**Q.** For PRCDLVDLGEGPICFCCEEFQPAK [K12P], which protein stability index is on record?
**A.** 3.25

**Q.** For PRCDLVDLGEGVICFCCEEFQPAK [K12V], which protein stability index is on record?
**A.** 2.35

**Q.** Which protein stability index does the source give for PRCDLVDLGEGDICFCCEEFQPAK [K12D] here?
**A.** 3.4

**Q.** Which protein stability index does the source give for PRCDLVDLGEGHICFCCEEFQPAK [K12H] here?
**A.** 4.16

**Q.** For PRCDLVDLGEGTICFCCEEFQPAK [K12T], which protein stability index is on record?
**A.** 2.63

**Q.** With PRCDLVDLGEGLICFCCEEFQPAK [K12L] as the variant, how does the protein stability index read?
**A.** 2.42

**Q.** Which protein stability index does the source give for PRCDLVDLGEGKIDFCCEEFQPAK [C14D] here?
**A.** 4.07

**Q.** Which protein stability index does the source give for PRCDLVDLGEGKIMFCCEEFQPAK [C14M] here?
**A.** 2.87

**Q.** Which protein stability index does the source give for PRCDLVDLGEGKIQFCCEEFQPAK [C14Q] here?
**A.** 3.79

**Q.** For PRCDLVDLGEGKIWFCCEEFQPAK [C14W], which protein stability index is on record?
**A.** 2.51

**Q.** Which protein stability index does the source give for PRCDLVDLGEGKIYFCCEEFQPAK [C14Y] here?
**A.** 2.46

**Q.** With PRCDLVDLGEGKISFCCEEFQPAK [C14S] as the variant, how does the protein stability index read?
**A.** 3.3

**Q.** For PRCDLVDLGEGKIKFCCEEFQPAK [C14K], which protein stability index is on record?
**A.** 3.94

**Q.** With PRCDLVDLGEGKIAFCCEEFQPAK [C14A] as the variant, how does the protein stability index read?
**A.** 3.62

**Q.** With PRCDLVDLGEGKILFCCEEFQPAK [C14L] as the variant, how does the protein stability index read?
**A.** 3.15

**Q.** With PRCDLVDLGEGKIRFCCEEFQPAK [C14R] as the variant, how does the protein stability index read?
**A.** 3.51

**Q.** For PRCDLVDLGEGKIGFCCEEFQPAK [C14G], which protein stability index is on record?
**A.** 3.56

**Q.** With PRCDLVDLGEGKINFCCEEFQPAK [C14N] as the variant, how does the protein stability index read?
**A.** 4.56

**Q.** For PRCDLVDLGEGKIVFCCEEFQPAK [C14V], which protein stability index is on record?
**A.** 3.06

**Q.** For PRCDLVDLGEGKITFCCEEFQPAK [C14T], which protein stability index is on record?
**A.** 3.47

**Q.** For PRCDLVDLGEGKIEFCCEEFQPAK [C14E], which protein stability index is on record?
**A.** 4.24

**Q.** Which protein stability index does the source give for PRCDLVDLGEGKIPFCCEEFQPAK [C14P] here?
**A.** 3.94

**Q.** Which protein stability index does the source give for PRCDLVDLGEGKIIFCCEEFQPAK [C14I] here?
**A.** 2.39

**Q.** For PRCDLVDLGEGKIFFCCEEFQPAK [C14F], which protein stability index is on record?
**A.** 2.16

**Q.** With PRCDLVDLGEGKIHFCCEEFQPAK [C14H] as the variant, how does the protein stability index read?
**A.** 3.48

**Q.** With PRCDLHDLGEGKICFCCEEFQPAK [V6H] as the variant, how does the protein stability index read?
**A.** 4.45

**Q.** Which protein stability index does the source give for PRCDLFDLGEGKICFCCEEFQPAK [V6F] here?
**A.** 2.71

**Q.** For PRCDLADLGEGKICFCCEEFQPAK [V6A], which protein stability index is on record?
**A.** 3.49

**Q.** For PRCDLIDLGEGKICFCCEEFQPAK [V6I], which protein stability index is on record?
**A.** 2.49

**Q.** Which protein stability index does the source give for PRCDLGDLGEGKICFCCEEFQPAK [V6G] here?
**A.** 3.46

**Q.** Which protein stability index does the source give for PRCDLWDLGEGKICFCCEEFQPAK [V6W] here?
**A.** 2.28

**Q.** For PRCDLDDLGEGKICFCCEEFQPAK [V6D], which protein stability index is on record?
**A.** 3.34

**Q.** For PRCDLPDLGEGKICFCCEEFQPAK [V6P], which protein stability index is on record?
**A.** 3.03

**Q.** For PRCDLKDLGEGKICFCCEEFQPAK [V6K], which protein stability index is on record?
**A.** 3.78

**Q.** With PRCDLNDLGEGKICFCCEEFQPAK [V6N] as the variant, how does the protein stability index read?
**A.** 3.71

**Q.** With PRCDLYDLGEGKICFCCEEFQPAK [V6Y] as the variant, how does the protein stability index read?
**A.** 2.73

**Q.** With PRCDLCDLGEGKICFCCEEFQPAK [V6C] as the variant, how does the protein stability index read?
**A.** 4.15

**Q.** Which protein stability index does the source give for PRCDLQDLGEGKICFCCEEFQPAK [V6Q] here?
**A.** 3.92

**Q.** For PRCDLMDLGEGKICFCCEEFQPAK [V6M], which protein stability index is on record?
**A.** 2.65

**Q.** For PRCDLRDLGEGKICFCCEEFQPAK [V6R], which protein stability index is on record?
**A.** 3.4

**Q.** With PRCDLEDLGEGKICFCCEEFQPAK [V6E] as the variant, how does the protein stability index read?
**A.** 3.48

**Q.** For PRCDLTDLGEGKICFCCEEFQPAK [V6T], which protein stability index is on record?
**A.** 2.98

**Q.** Which protein stability index does the source give for PRCDLSDLGEGKICFCCEEFQPAK [V6S] here?
**A.** 3.21
